Laboratory results: publication PMC9400903, “A Versatile Synthetic Affinity Probe Reveals Inhibitory Synapse Ultrastructure and Brain Connectivity**” (Angewandte Chemie (International Ed. in English), 2022)
Where no end group is shown, it is not given here.

T1: eGFP-gephyrin (UniProt Q03555 1-768)
T1 construct: gephyrin; source: COS-7 cells, expressed, cells fixed; 'mammalian cells' for the test of SyliteCy3
T1 sequence (looked up): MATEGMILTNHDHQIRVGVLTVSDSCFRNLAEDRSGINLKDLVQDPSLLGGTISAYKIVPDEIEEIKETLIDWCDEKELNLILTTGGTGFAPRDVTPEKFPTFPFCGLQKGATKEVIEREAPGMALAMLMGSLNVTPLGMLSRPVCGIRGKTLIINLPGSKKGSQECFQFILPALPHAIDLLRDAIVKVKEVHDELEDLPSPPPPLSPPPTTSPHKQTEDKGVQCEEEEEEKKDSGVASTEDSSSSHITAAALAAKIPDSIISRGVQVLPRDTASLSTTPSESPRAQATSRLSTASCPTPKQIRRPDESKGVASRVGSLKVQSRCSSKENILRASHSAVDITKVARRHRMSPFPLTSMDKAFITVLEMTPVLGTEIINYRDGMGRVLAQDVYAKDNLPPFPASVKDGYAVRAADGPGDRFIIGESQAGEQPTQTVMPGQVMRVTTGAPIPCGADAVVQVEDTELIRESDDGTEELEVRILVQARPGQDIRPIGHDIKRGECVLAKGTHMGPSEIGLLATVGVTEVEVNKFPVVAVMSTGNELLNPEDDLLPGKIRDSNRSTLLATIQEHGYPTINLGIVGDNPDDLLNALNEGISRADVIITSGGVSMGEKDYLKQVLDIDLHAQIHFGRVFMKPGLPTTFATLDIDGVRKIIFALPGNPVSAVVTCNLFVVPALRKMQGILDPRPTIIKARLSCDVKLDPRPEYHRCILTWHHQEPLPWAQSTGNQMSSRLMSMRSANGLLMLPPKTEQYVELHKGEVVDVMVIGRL

B1: Sylite (peptide)
chain 1: YSIVGSYPRKC(maleimide‑Cy5)
chain 2: YSIVGSYPR
modifications: also: two chains joined via linker, linkage not given here
B2: SyliteM (peptide)
chain: FSIVGSYPRRRRRRRRR
modifications: also: fluorophore
B3: gephyrin E domain (domain or fragment)
chain: SSKENILRASHSAVDITKVARRHRMSPFPLTSMDKAFITVLEMTPVLGTEIINYRDGMGRVLAQDVYAKDNLPPFPASVKDGYAVRAADGPGDRFIIGESQAGEQPTQTVMPGQVMRVTTGAPIPCGADAVVQVEDTELIRESDDGTEELEVRILVQARPGQDIRPIGHDIKRGECVLAKGTHMGPSEIGLLATVGVTEVEVNKFPVVAVMSTGNELLNPEDDLLPGKIRDSNRSTLLATIQEHGYPTINLGIVGDNPDDLLNALNEGISRADVIITSGGVSMGEKDYLKQVLDIDLHAQIHFGRVFMKPGLPTTFATLDIDGVRKIIFALPGNPVSAVVTCNLFVVPALRKMQGILDPRPTIIKARLSCDVKLDPRPEYHRCILTWHHQEPLPWAQSTGNQMSSRLMSMRSANGLLMLPPKTEQYVELHKGEVVDVMVIGRL

Columns and labels:
[1] = target: T1, eGFP-gephyrin; assay: immunostaining of cells or tissue; fixed COS-7 cells expressing eGFP-gephyrin or eGFP alone, stained with the fluorescent probes (50 nM Sylite); probe signal at eGFP-rich regions; settings: one partner purified
[2] = target: B2; assay: ITC; Sylite or SyliteM titrated with purified gephyrin E domain; N=3; settings: both partners purified
[3] = target: B1; assay: as above; settings: both partners purified

Row | Binder | signal-to-background ratio (SBR) [1] | Kd [2] [nM] | Kd [3] [nM] | stoichiometry N [3]
1 | B1 | 492 | – | – | –
2 | B2 | 36 | – | – | –
3 | B3 | – | 205 | 17.5 | 2 gephyrin E domain per probe
